One test addresses T1, Shh (Homo sapiens, UniProt Q15465).
T1 construct: yielding Shh (residues 29-197) lacking the His6-Tag; His6 (N, cleaved yes); made in house; host or cells: E. coli Rosetta 2, minimal/M9 medium with 15NH4Cl
The experiment in a line: NMR HSQC spectroscopy of labeled Shh with L2 loop peptides. It counts as binding. The source says: Shh is in the same orientation as in the Hhip-Shh complex in Panel A. Zn^2+ and Ca^2+ cations are shown. […] Surface representation of Shh with residues within 4.5 Å of Hhip (shaded gray) and Cdon (hatched areas). Area within dotted boarder indicates the boundaries of the Cdon footprint, which overlaps the Hhip binding surface. […] Shh histidine residues are shown as sticks with nitrogen atoms shaded dark. The Hhip L2 loop is shown in transparent surface and Zn^2+ cation is shown. Histidine 35 is not shown since the ordered portion of the Shh structure begins at L40. […] The spectral region of the histidine side chains is shown. […] The average mean Shh649 fluorescence intensity (MFI) of two independent dilution series was plotted versus protein concentration, with error bars denoting standard deviations. Ctrl refers to the His-6 (SEQ ID NO: 87) tagged HGF β protein. […] Shh649 (0.33 nM) was preincubated with 56 nM (170-fold excess) of Hhipβ12 wildtype or L2 mutant proteins, 5E1 or controls then bound to Ptch1 cells (black) or 293 cells (gray), washed and analyzed by FACS. Shh649 binding to Ptch1 cells in the absence of inhibitors was normalized to 100% and the data expressed as a percentage of this signal (average of two independent duplicates with standard deviations). Ctrl and CtrlFc refer to HGF β and the IgG1 isotype control Trastuzumab, respectively. […]

Another test concerns the target T2, Shh-Flag (Homo sapiens, UniProt Q15465).
T2 construct: Shh-Flag (residues 25-197 with C-terminal Flag-Tag); His6 (N); made in house; host or cells: Shh-Flag: E. coli Rosetta 2; Hhip: Tni insect cells
The experiment in a line: Peptide competition ELISA for Hhip binding to Shh-Flag. On the procedure:
In a competition assay, a peptide derived from the Hhip1β12 L2 loop competed with Hipβ1 for Shh binding. Briefly, 96-well Nunc-Immuno MaxiSorp plates (Nalge Nunc International) were coated with 100 μl of anti-Flag M2 antibody (Sigma) at 5 μg/ml in 50 mM sodium carbonate buffer pH 9.6 at 4° C. overnight. Plates were blocked and washed as described for Shh competition ELISA followed by incubation with 100 μL of Shh-Flag at 50 μg/ml for 1 h. After plate washing a serial dilution of Hip-L2 peptide ([…]) (SEQ ID NO:46) starting at 1.2 mM (1:3 dilution) containing 800 nM Hhip1β12 in a final volume of 100 μL was added to the wells to compete for binding to Shh-Flag. After incubation for 1 hr, wells were washed and incubated with anti-His-HRP conjugate (Qiagen, 1:2000 dilution) in blocking buffer. Plate was developed and the data were fit to a 4-parameter equation and the IC50 calculated as described above; assays were carried out in triplicate.
A general note: An ELISA detects its analyte on a solid surface through an enzyme-linked reagent.

Bridge positions count the residues as written; N and C are the ends. Ends that are not written are not given here.

T1 sequence (Q15465 29-197): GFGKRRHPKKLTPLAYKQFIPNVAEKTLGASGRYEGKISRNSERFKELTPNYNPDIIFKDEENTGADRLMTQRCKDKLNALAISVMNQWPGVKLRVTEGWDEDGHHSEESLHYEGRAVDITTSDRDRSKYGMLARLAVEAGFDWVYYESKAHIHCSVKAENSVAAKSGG
T2 sequence (Q15465 25-197): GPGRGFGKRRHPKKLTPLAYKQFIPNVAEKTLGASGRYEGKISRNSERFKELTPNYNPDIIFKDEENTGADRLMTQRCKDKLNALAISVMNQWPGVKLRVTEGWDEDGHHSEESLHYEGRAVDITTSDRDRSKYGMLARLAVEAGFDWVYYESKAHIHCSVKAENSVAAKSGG

Turning to “GCGMITLDDMEEMDGLSDFCG (disulfide 2-20 (inferred); listed as Homo sapiens) [Hhip1β12 L2 peptide]”, in the test with Shh (2 mM of each peptide), the “displacement of Ptch1 L2-like peptide from Shh by ^13C, ^1H-HSQC” value is given as “displaces Ptch1 L2-like peptide from Shh”.

As to “GCQLTKQRLVDADGIINPCG (disulfide 2-19 (inferred); listed as Homo sapiens) [Ptch L2 peptide]”, the “binding to Shh by ^15N, ^1H HSQC (in words)” value in the test with Shh (peptide 2 mM, 90 μM ^15N-Shh) is listed as “binds Shh in a manner similar to that of the Hhip1β12 L2 peptide”. For the same sequence, the “competition with Hipβ1 for Shh binding (in words)” value with Shh-Flag is recorded as “unable to compete with Hipβ1 for Shh binding”.

(Values after patent publication US8623997B2, “Variant Hhip1 protein and methods and uses thereof” (Curis, Inc., priority 2008, dated 2014).)
